Data from PMC6275602 (Cellular & Molecular Biology Letters, 2012).
Like-named read-outs stand apart in the source and are kept apart here.

Tests used:
[1] = molecular target: T1, human low-density lipoprotein (LDL; d = 1.019-1.063 g/ml) (human); test: SPR
[2] = molecular target: T1, human low-density lipoprotein (LDL; d = …); test: SPR; remark: listed apart in the source

B1: sPLA2-X-HisTag, purified recombinant human (enzyme, UniProt O15496 43-165, looked up)
chain: GILELAGTVGCVGPRTPIAYMKYGCFCGLGGHGQPRDAIDWCCHGHDCCYTRAEEAGCSPKTERYSWQCVNQSVLCGPAENKCQELLCKCDQEIANCLAQTEYNLKYLFYPQFLCEPDSPKCD
- Kd [1]: 110 nM
- koff [1]: 0.00886 s⁻¹
- kon [1]: 82500 M⁻¹ s⁻¹
- Kd [2]: 3.1 nM
- koff [2]: 0.00024 s⁻¹
- kon [2]: 65400 M⁻¹ s⁻¹
